Source: the supplement of paper PMC7877785
± gives the uncertainty stated by the source.

Assay: self-splicing fitness, log relative to wild type (ln ratio); higher = more splicing; Tetrahymena group I intron in knt gene, E. coli kanamycin selection, DiMSum; sequences stand for … in CUCUCU…GGAGGGAAAAGUUAUCAGGCAUGCACCUGGUAGCUAGUCUUUAAACCAAUAGAUUGCAUCGGUUUAAAAGGCAAGACCGUCAAAUUGCGGGAAAGGGGUCAACAGCCGUUCAGUACCAAGUCUCAGGGGAAACUUUGAGAUGGCCUUGCAAAGGGUAUGGUAAUAAGCUGACGGACAUGGUCCUAACCACGCAGCCAAGUCCUAAGUCAACAGAUCUUCUGUUGAUAUGGAUGCAGUUCACAGACUAAAUGUCGGUCGGGGAAGAUGUAUUCUUCUCAUAAGAUAUAGUCGGACCUCUCCUUAAUGGGAGCUAGCGGAUGAAGUGAUGCAACACUGGAGCCGCUGGGAACUAAUUUGUAUGCGAAAGUAUAUUGAUUAGUUUUGGAGUACUCGUGGUCG
In short: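 A randomised library covering all eight P1ex-region intron nucleotides was built with the intron in the knt kanamycin-resistance gene on pET-22b(+) and held in E. coli BL21(DE3). Cells were grown overnight at 37°C or 30°C on LB agar, with or without 25 μg/mL kanamycin, plus 100 μg/mL carbenicillin, 50 μM IPTG and 0.2% rhamnose, and pooled colonies were amplicon-sequenced on an Illumina HiSeq 2500. DiMSum fitness is the error-weighted combination of wild-type-normalised replicate fold changes, kanamycin versus none.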

Sequence | self-splicing fitness (ln) (30 °C) | self-splicing fitness (ln) (37 °C)
UCUAAGCAAUAUUACGCUGG | -2.53 ± 0.12 | -2.92 ± 0.24
GGGUAGCAAUAUUACGAGCU | -0.974 ± 0.17 | -1.33 ± 0.19
AGGGAGCAAUAUUACGACAG | -2.9 ± 0.13 | -2.62 ± 0.22
GUUAAGCAAUAUUACGAACA | -2.16 ± 0.29 | -1.32 ± 0.21
GGUUAGCAAUAUUACGGCCG | -0.999 ± 0.19 | -0.019 ± 0.25
AAAGAGCAAUAUUACGCACC | -2.03 ± 0.15 | -0.855 ± 0.17
CCGUAGCAAUAUUACGCCUU | -3.08 ± 0.44 | -2.19 ± 0.31
CUCAAGCAAUAUUACGACCG | -1.26 ± 0.12 | -0.638 ± 0.16
CCGUAGCAAUAUUACGAUCU |  | -2.46 ± 0.45
GACCAGCAAUAUUACGUACA | -0.568 ± 0.067 | 0.0774 ± 0.083
GAAGAGCAAUAUUACGUCCA | -3.13 ± 0.4 | 
ACACAGCAAUAUUACGCUUA | -1.75 ± 0.098 | -1.7 ± 0.075
AAAGAGCAAUAUUACGGGUC | -3.24 ± 0.21 | -3.09 ± 0.37
UUUAAGCAAUAUUACGGGCC |  | -2.57 ± 0.49
CGCUAGCAAUAUUACGGAAG | -1.7 ± 0.16 | 0.348 ± 0.17
GCCCAGCAAUAUUACGAGCA | -1.49 ± 0.11 | -0.143 ± 0.091
CUCGAGCAAUAUUACGAGGA | -1.94 ± 0.26 | 
GGAAAGCAAUAUUACGGAGA | -1.97 ± 0.27 | -2.54 ± 0.26
GUUUAGCAAUAUUACGAUCU | -0.663 ± 0.12 | -0.195 ± 0.18
GUUAAGCAAUAUUACGAGCU | -1.76 ± 0.13 | -1.08 ± 0.15
AGUUAGCAAUAUUACGGGAC | -3.33 ± 0.26 | -0.241 ± 0.12

Sequence | self-splicing fitness (ln) (30 °C) | self-splicing fitness (ln) (37 °C)
CUUCAGCAAUAUUACGGUCA | -2.2 ± 0.25 | -3.2 ± 0.24
UCCGAGCAAUAUUACGCUUC |  | -2.37 ± 0.35
UGUCAGCAAUAUUACGUUUA | -0.825 ± 0.095 | -0.114 ± 0.089
AGUUAGCAAUAUUACGUGUA | -2.26 ± 0.23 | -0.97 ± 0.15
AUCGAGCAAUAUUACGUCGC | -2.55 ± 0.28 | -2.21 ± 0.29
AAAGAGCAAUAUUACGAACC |  | -1.39 ± 0.46
AUUUAGCAAUAUUACGACGU | 0.023 ± 0.064 | 0.539 ± 0.077
AGGGAGCAAUAUUACGACAC |  | -1.18 ± 0.29
GGGUAGCAAUAUUACGUUCG | -0.742 ± 0.065 | 0.339 ± 0.086
UGGGAGCAAUAUUACGUGUG | -1.75 ± 0.22 | -2.26 ± 0.33
CUCUAGCAAUAUUACGGCGG | -3.5 ± 0.15 | -3.12 ± 0.23
UUCUAGCAAUAUUACGUGUG | -0.91 ± 0.06 | -0.542 ± 0.082
UUAGAGCAAUAUUACGUCCU | -1.36 ± 0.21 | -1.87 ± 0.31
GUAUAGCAAUAUUACGUCCU | -1.56 ± 0.15 | -0.00945 ± 0.19
ACAUAGCAAUAUUACGUGUC | -4.9 ± 0.41 | -2.72 ± 0.28
UAACAGCAAUAUUACGAGCC | -2.65 ± 0.24 | -2.24 ± 0.49
UCCGAGCAAUAUUACGGGCA | -1.79 ± 0.12 | -0.787 ± 0.1
CCUGAGCAAUAUUACGGCUA | -1.85 ± 0.33 | 
AGCAAGCAAUAUUACGGACA | -1.12 ± 0.14 | -0.766 ± 0.14
UCUUAGCAAUAUUACGGAAU | -4.47 ± 0.26 | -1.93 ± 0.16
CGACAGCAAUAUUACGCUCA | 0.00701 ± 0.094 | -0.503 ± 0.1

Sequence | self-splicing fitness (ln) (30 °C) | self-splicing fitness (ln) (37 °C)
CUCAAGCAAUAUUACGUCGA | -3.37 ± 0.31 | -1.41 ± 0.18
GCUCAGCAAUAUUACGUACC | 0.00766 ± 0.067 | 0.487 ± 0.1
UCUUAGCAAUAUUACGGUGA | -0.481 ± 0.1 | 0.15 ± 0.1
AUCCAGCAAUAUUACGUCUA | -0.908 ± 0.066 | -0.497 ± 0.07
ACUUAGCAAUAUUACGCUGU | -3.85 ± 0.2 | -2.19 ± 0.17
UCGUAGCAAUAUUACGUUGG | -2.59 ± 0.17 | -0.973 ± 0.17
GAGCAGCAAUAUUACGCGCC | -3.87 ± 0.28 | -3.17 ± 0.35
CGACAGCAAUAUUACGGGGG | -2.92 ± 0.094 | -2.51 ± 0.11
UCAUAGCAAUAUUACGACUU | -3.87 ± 0.28 | -2.42 ± 0.39
UAAGAGCAAUAUUACGGCCU | -1.36 ± 0.47 | 
GGGGAGCAAUAUUACGGACG | -2.73 ± 0.32 | -1.21 ± 0.28
UAUUAGCAAUAUUACGGUAA | -2.24 ± 0.26 | -1.54 ± 0.23
AGAAAGCAAUAUUACGUGUG | -2.13 ± 0.081 | -1.78 ± 0.095
AGUUAGCAAUAUUACGGUUC | -3.52 ± 0.28 | -2.11 ± 0.27
GCUAAGCAAUAUUACGGACU | -1.66 ± 0.12 | -0.74 ± 0.14
CCGAAGCAAUAUUACGAUAG | -0.89 ± 0.061 | -0.284 ± 0.08
AUACAGCAAUAUUACGGUUG | -2.35 ± 0.097 | -0.364 ± 0.093
UACGAGCAAUAUUACGAGUU | -2.32 ± 0.2 | -0.892 ± 0.23
UUUAAGCAAUAUUACGCAAG | -1.43 ± 0.2 | -0.275 ± 0.18
AGGAAGCAAUAUUACGGGCU | -1.72 ± 0.12 | -0.915 ± 0.13
CUCAAGCAAUAUUACGGGAA | -2.51 ± 0.16 | -1.19 ± 0.14
